The record followed here is paper doi:10.1101/634915 (bioRxiv, 2019).

This test addresses RlucII-Rab7A (UniProt P51149 1-207). Nature of the test: FRET or BRET.

Chain of RlucII-Rab7A (P51149 whole entry): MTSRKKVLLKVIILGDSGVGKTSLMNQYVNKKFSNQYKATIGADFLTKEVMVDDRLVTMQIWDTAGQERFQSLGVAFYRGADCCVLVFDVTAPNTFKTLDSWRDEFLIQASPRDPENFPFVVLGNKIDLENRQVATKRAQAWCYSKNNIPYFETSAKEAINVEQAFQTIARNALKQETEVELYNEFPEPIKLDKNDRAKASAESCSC

B1: PLEKHM1-GFP10 (natural protein, UniProt Q9Y4G2 1-1056, looked up)
chain: MLSVVENGLDPQAAIPVIKKKLVGSVKALQKQYVSLDTVVTSEDGDANTMCSALEAVFIHGLHAKHIRAEAGGKRKKSAHQKPLPQPVFWPLLKAVTHKHIISELEHLTFVNTDVGRCRAWLRLALNDGLMECYLKLLLQEQARLHEYYQPTALLRDAEEGEFLLSFLQGLTSLSFELSYKSAILNEWTLTPLALSGLCPLSELDPLSTSGAELQRKESLDSISHSSGSEDIEVHHSGHKIRRNQKLTASSLSLDTASSSQLSCSLNSDSCLLQENGSKSPDHCEEPMSCDSDLGTANAEDSDRSLQEVLLEFSKAQVNSVPTNGLSQETEIPTPQASLSLHGLNTSTYLHCEAPAEPLPAQAASGTQDGVHVQEPRPQAPSPLDLQQPVESTSGQQPSSTVSETAREVGQGNGLQKAQAHDGAGLKLVVSSPTSPKNKSWISEDDFYRPSREQPLESASDHPIASYRGTPGSRPGLHRHFSQEPRKNCSLGALDQACVPSPGRRQAQAAPSQGHKSFRVVHRRQMGLSNPFRGLMKLGTVERRGAMGIWKELFCELSPLEFRLYLSNEEHTCVENCSLLRCESVGPAHSDGRFELVFSGKKLALRASSQDEAEDWLDRVREALQKVRPQQEDEWVNVQYPDQPEEPPEAPQGCLSPSDLLSEPAALQGTQFDWSSAQVPEPDAIKESLLYLYMDRTWMPYIFSLSLEALKCFRIRNNEKMLSDSHGVETIRDILPDTSLGGPSFFKIITAKAVLKLQAGNAEEAALWRDLVRKVLASYLETAEEAVTLGGSLDENCQEVLKFATRENGFLLQYLVAIPMEKGLDSQGCFCAGCSRQIGFSFVRPKLCAFSGLYYCDICHQDDASVIPARIIHNWDLTKRPICRQALKFLTQIRAQPLINLQMVNASLYEHVERMHLIGRRREQLKLLGDYLGLCRSGALKELSKRLNHRNYLLESPHRFSVADLQQIADGVYEGFLKALIEFASQHVYHCDLCTQRGFICQICQHHDIIFPFEFDTTVRCAECKTVFHQSCQAVVKKGCPRCARRRKYQEQNIFA
As for B1, the “fold change of BRET50, CLN3-KO against wild-type HeLa cells” value is 3.5 fold.
